According to article PMC4701713, “DNA Entry into and Exit out of the Cohesin Ring by an Interlocking Gate Mechanism” (Cell, 2015):

B1: Fission-yeast Psc3 (natural protein, fission yeast, UniProt O13816 1-962, looked up)
chain: MSESVTTGSDDDGGDRESSPVMLSQSFDPMSSSSNSSSEENSDDDYEKTISSKKRHPRPNSKGVNVKRSRRNAIVEEDPQEEIFNNLFAFLLDQKVDTMDIAVSWFADYAKDNQSALANLINFILKCCGCNRAINVFDVQDQDSASATLSQIQLSVERTSTRDYPLNSKNLKFRNFRKRLTGLLSNFVSQLSIRNYLYNSTVFEDIMSWVVAMSSSTMRPIRHTATVFCLNIMTFLCEKSKELLNEHAIATKQLEKEEKRSRVNRNRINELNNSLGEIVKQQDTLTTYLNDYFDSVFVHRYRDVEPKIRVDCLQELGVWINTVPSIFFSGSYLRYLGWMLSDINTTVRLTVVKVLRKFFETDSFIGGLRHFSSRFKERILEMSCVDADIGVRVASIRLCNAMRTCGFLENSEILKVLKLILDINPRVQREAVLFLCKVVDESVNEKIDLWGEEDYILKAFSQTSLTTFSVHWIKFSQMCKLLEEVRLSYQSSFDYDTLLRIFQKNGNFITPITQALLNACEIDSIYQSWEDISNFVLFDNYTSTLKDPIDSILSFCKLNDFQESILLQLLSASIQTVCNNNFITPKTVHNKQAAETTNDQNKDKDLLYLNLLPYINSITERNSASPTLLHDSLRLLFSMDLTEMTDPQLSRHFELLINNLKKFFLTNNDLQIIQGCTILFLRLDSIPALKEDLKLLVTDICDQTVTEFLKNFGSFNIQDAVITKDEFVIFEACLTRIEGCTSLKDFSDYPEFDIIYERLVSLLSRVPNSYEDTLKFSAINTLQSLLFWFFLRKDNPADEEKKKDDETKVFNCLINIMNNDSSKILQLQAARTFLETVIMKEGVKASHYNDDNRVSEEHNFLKPQFLDALLKILEGWLYTYAKVGQFPFKRLTQASSPHTQISLDKNPLNRRLLEHVCCDLTSKLLIVVSLSNTITPEFSQQFCELRGHYGPKLSAIVDEFLN
notes: Psc3 (Scc3), subunit of fission-yeast cohesin, as a separate protein; source: prepared and purified as described (Murayama and Uhlmann, 2014)
B2: Fission-yeast Pds5 (natural protein, fission yeast, UniProt Q9HFF5 1-1205, looked up)
chain: MIKLQFQRNIVPTHDNPLTTSEILKRLRDLLGELTSLSQDTIDRDSVLPVARSLVNNNLLHHKDKGIRSYTLCCIVELLRLCAPDAPFTLSQLEDIFQVILKILSGLMNQESTYYPQIYEILESLSNVKSAVLIVDLPNAEEFLVNIFRLFFDLARKGTTKNVEFYMLDIINQLINEINTIPAAALNILFAQLISGKGVRQTIGSSDSTNHGPAFQLARNIFHDSADRLQRYVCQYFSDIIFDSRDSLSDSMTTPEFIFSHNLVLQLWKYAPTTLLNIIPQFENELQAEQTSVRLVAIETVGLMLQDNAIWSDYPRVWSAFCGRLNDKSVACRIKCIEVASNALQNSLATSEIIENVVQMLQSKLADTDEKVRVATLKTIEQLTFETFKMQFSVQALKLMGDRLRDRKLNVRLQAIRTLSQIYNRAYQDLIDGVEYSIQMFSWIPSSLLEVFYVNDETTNAAVEICMAELVLQYLSSDTQTRLNRLFLSIKYFSEKAMRVFILLLQRQVKYSELLNYYIECCKNYNGGVMDNDEESITNKLKKVIDIISSKSSNPTLTEATFRKFAELNDRQSYKMLLQTFSIKSEYQVVLKSIKYLFKRVSETLSTASLECFRIFVYRSALFAFNKSNVHEIIQLLNEPVKYHNFLKPSEALLQHLPLIHPNIYGEVVIEVENIIVSSGIESDPKVIKALSQFSKRKKNFSIQTTTAEILRKLCLHGTQEQAKQAATIIAITETKEFKLDMITNIVENLEYNGGLPVRLMTLGQLFLYTLEEVEKVADQVTEFLVKKVIQRFPEKYDDTHNDEEWCTYEKLDNLTMCKVLAIRVLVNRLRAAAGGTEALNIGAPIIKLLKVLLMADGELSPFKNTPKISRAYLRLTASKYFLKLCSIPFYAEHIDFSSYVQISLLCQDENFDVRNLFLTKLQKQLQLKKLPISYYPLLFLTAVDPEEEIKTKASIWIRSQVAFFQKTHDFTMEYVATYLIHLLSHHPDISSIESENSLDFIAYIRFYVDTVVNSENVPIVFHLMQRIKQSYDVIEDGNNYIYVLSDMAQKILQVKSQNFGWSLTTYPKQIKLPYEILRPIPSIDEKKRIFNKIFITPKMESQIEHAIRTPVSSFAKQTTNKHANLKQKKTHSSKSDKKSSRRRKNEKRRKLNEQNPNIRNVPERSSSRFQGIRINYSEAPSSSEEISEEEEEISEEDFDEIEDL
notes: Pds5, cohesin subunit of fission yeast; Protein A was removed by protease; source: overexpressed in budding yeast, purified (IgG-agarose, Capto Q, gel filtration)
B3: Fission-yeast Wapl (natural protein, fission yeast, UniProt O94364 1-602, looked up)
chain: MKRGKCKEKDNGLKRISSESEVWNFLDVTVSELNKQKRSPGQTVSKRLHKKQRVVSNPDLSLPSSPVKQILRNGLQNSKYGSHKTGLERSASCSSIDASANHSSTTYREQRSYLMEEGLDTQPIVPREVSSGRELDSTNHTIGTERAFLIEEDVSEDDEIQMKSIHELRFAGEQQRIVDEIEYLVDGVTFSGNSSASRYLSLIGIAEKMFDNSFRLCLKSIRDVFLRIFEEIDPKDTLHTFLQIYIFATMANEMDCMSSLLDAYSNNVKLLLQTAITLEPQVPVSILAKSLPKSVKGAVQEFVIKAELTFSFSNESLASSDSISLAAIALMKTSSGVFAESELFTELINLLIEKSYPILKENDGSNNFLLHALCSSLEKFTDFQGSEKIQKVSQILSSKLQILIDEHNETNSPKIDDTVVHACSEKLLRTLIQTVNSNSDHALAVSKSEVPLFAYKILQKFSNFSSDDETTRELIILILGLLLGLVEESHEFIQTITHVEVSFGASALDVLISFYQKNESIVEISGYVVMILSHCFLNDPKAFAQLKPLISQFYESLHKFKNFHLKLKEELMMMGSNGLAIVSIIDELHKSLQDYLRSDLVK
notes: Wapl, cohesin subunit of fission yeast; GST was removed by protease; source: E. coli, purified (glutathione sepharose, heparin chromatography)

Columns and labels:
Conditions in all cases: both partners purified
[1] = molecular target: T1, Mis4-Ssl3 cohesin loader (fission yeast, UniProt Q09725 1-1587; O94459 1-559); assay: co-IP; Psc3 immunoprecipitated; co-precipitation of the Psm1-Psm3 hinge and of the cohesin loader analysed
T1 construct: Mis4, subunit of the fission-yeast cohesin loader; Ssl3, subunit of the fission-yeast cohesin loader; also called MS; source: prepared and purified as described (Murayama and Uhlmann, 2014)

[2] = molecular target: T2, Fission-yeast cohesin trimer (Psm1, Psm3 and Rad21) (fission yeast, UniProt O94383 1-1228; O42649 1-1194; P30776 1-628); assay: co-IP; recombinant cohesin tetramer or trimer immunoprecipitated via Rad21-HA with Pds5 and Wapl both added; bound proteins by western blotting
T2 construct: Psm1 (Smc1), SMC subunit of fission-yeast cohesin; Psm3 (Smc3), SMC subunit of fission-yeast cohesin; Rad21, kleisin subunit of fission-yeast cohesin; Lacks Psc3; source: recombinant, purified (Murayama and Uhlmann, 2014); copies: + +
T2 sequence (O94383 whole entry, chain 1 of 3): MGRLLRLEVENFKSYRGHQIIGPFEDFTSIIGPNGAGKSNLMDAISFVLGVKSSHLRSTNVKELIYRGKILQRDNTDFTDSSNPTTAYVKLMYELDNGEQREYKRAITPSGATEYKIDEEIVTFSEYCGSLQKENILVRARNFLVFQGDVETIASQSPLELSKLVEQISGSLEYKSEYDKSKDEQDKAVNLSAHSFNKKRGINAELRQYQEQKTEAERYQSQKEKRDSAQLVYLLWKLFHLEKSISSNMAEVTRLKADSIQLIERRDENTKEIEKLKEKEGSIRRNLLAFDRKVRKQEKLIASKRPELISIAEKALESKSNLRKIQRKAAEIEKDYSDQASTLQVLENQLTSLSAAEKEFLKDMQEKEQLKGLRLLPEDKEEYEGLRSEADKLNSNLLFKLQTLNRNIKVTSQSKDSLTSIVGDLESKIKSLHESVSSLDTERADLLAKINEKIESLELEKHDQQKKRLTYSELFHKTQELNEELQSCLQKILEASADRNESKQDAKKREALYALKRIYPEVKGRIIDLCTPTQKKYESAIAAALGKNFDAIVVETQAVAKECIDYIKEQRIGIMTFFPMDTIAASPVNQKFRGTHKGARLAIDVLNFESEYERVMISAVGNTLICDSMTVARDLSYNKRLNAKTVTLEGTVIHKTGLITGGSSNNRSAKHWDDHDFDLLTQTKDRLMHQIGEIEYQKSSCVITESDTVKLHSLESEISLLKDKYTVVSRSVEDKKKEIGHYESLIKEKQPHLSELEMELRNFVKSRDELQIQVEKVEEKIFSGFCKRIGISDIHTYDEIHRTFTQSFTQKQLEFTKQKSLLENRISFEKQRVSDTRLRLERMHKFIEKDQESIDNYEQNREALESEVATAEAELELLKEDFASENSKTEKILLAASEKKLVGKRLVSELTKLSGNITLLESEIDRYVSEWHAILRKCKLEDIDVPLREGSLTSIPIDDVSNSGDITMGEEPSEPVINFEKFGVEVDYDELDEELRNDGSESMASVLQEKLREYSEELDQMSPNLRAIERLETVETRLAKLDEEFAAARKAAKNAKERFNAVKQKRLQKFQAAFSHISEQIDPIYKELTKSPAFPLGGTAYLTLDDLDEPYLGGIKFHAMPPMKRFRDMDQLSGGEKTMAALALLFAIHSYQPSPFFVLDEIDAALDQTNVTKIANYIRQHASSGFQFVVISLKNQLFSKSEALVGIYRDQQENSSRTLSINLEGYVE
T2 sequence (O42649 whole entry, chain 2 of 3): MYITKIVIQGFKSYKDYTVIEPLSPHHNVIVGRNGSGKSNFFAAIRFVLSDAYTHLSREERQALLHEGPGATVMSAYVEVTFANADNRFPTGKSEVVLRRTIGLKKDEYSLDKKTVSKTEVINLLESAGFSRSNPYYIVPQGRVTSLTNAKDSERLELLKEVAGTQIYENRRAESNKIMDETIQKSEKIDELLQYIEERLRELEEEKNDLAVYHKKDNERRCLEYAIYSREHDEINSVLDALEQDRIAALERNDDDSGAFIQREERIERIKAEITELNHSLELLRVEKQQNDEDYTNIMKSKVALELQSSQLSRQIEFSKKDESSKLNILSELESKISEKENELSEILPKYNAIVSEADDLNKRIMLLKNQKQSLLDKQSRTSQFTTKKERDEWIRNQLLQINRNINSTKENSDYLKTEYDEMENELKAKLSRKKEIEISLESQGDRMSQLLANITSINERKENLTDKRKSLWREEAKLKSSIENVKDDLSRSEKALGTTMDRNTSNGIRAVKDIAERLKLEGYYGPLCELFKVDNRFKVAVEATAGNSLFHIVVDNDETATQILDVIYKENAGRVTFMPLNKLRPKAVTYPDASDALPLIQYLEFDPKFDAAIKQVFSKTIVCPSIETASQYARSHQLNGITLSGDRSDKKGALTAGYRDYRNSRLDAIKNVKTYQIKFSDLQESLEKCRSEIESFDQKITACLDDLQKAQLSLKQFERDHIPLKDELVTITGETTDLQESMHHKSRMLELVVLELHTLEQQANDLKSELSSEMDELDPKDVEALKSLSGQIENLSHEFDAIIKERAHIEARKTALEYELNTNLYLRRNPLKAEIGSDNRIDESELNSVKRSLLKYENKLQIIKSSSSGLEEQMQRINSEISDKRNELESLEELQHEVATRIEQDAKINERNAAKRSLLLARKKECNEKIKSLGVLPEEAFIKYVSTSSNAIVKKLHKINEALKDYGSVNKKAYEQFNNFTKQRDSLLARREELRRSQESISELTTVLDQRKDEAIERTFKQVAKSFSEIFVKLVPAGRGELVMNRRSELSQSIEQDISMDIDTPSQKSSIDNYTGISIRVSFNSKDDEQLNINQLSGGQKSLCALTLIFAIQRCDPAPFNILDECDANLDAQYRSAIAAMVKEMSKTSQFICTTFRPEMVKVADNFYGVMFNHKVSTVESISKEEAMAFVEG
T2 sequence (P30776 whole entry, chain 3 of 3): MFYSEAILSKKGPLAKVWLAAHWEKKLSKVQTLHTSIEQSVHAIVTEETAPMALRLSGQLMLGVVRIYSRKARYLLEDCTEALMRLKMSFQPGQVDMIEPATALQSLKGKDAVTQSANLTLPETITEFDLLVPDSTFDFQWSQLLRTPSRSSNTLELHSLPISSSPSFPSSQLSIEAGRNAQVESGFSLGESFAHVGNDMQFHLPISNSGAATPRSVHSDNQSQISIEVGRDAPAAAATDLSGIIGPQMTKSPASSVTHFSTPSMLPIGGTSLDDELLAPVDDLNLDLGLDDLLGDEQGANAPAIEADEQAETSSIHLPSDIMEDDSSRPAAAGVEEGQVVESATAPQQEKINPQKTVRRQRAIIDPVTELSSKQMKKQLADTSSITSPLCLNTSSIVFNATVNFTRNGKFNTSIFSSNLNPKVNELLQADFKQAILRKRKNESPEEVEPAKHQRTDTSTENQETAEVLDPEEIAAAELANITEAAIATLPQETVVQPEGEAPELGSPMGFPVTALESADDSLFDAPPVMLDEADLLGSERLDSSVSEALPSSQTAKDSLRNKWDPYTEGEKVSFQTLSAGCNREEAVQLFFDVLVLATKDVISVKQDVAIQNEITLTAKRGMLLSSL

[3] = molecular target: T3, Fission-yeast cohesin tetramer (Psm1, Psm3, Rad21 and Psc3) (fission yeast, UniProt O94383 1-1228; O42649 1-1194; P30776 1-628; O13816 1-962); assay: as above
T3 construct: Psm1 (Smc1), SMC subunit of fission-yeast cohesin; Psm3 (Smc3), SMC subunit of fission-yeast cohesin; Rad21, kleisin subunit of fission-yeast cohesin; Psc3 (Scc3), subunit of fission-yeast cohesin; also called "4"; source: recombinant, purified as described (Murayama and Uhlmann, 2014); not shown: Pk, C-terminal, kept; copies: + + +
T3 sequence (O94383 whole entry, chain 1 of 3): as the sequence (O94383 whole entry, chain 1 of 3) above
T3 sequence (O42649 whole entry, chain 2 of 3): as the sequence (O42649 whole entry, chain 2 of 3) above
T3 sequence (P30776 whole entry, chain 3 of 3): as the sequence (P30776 whole entry, chain 3 of 3) above

[4] = molecular target: B2; assay: SEC; purified Pds5 and Wapl mixed in equimolar amounts and analysed by gel filtration; fractions by SDS-PAGE and silver staining

Row | Binder | binding result [1] | binding result [2] | binding result [3] | binding result [4]
1 | B1 | binds |  |  | 
2 | B2 |  | binds | binds | 
3 | B3 |  | binds | binds | binds
